Data from patent US20250161478A1 (GLYKOS FINLAND, published 2025).
Like-named read-outs stand apart in the source and are kept apart here.

Columns and labels:
Experiment in all cases: cell-based or functional assay
[1] = biological target: T1, TYRP1 antigen on human melanoma cells (IGR-1, SK-MEL-30, SK-MEL-28) (human, UniProt P17643 25-537)
[2] = biological target: T1, TYRP1 antigen on human melanoma cells …; remark: listed apart in the source
[3] = biological target: T1, TYRP1 antigen on human melanoma cells …; remark: listed apart in the source
[4] = biological target: T1, TYRP1 antigen on human melanoma cells …; remark: listed apart in the source
[5] = biological target: T1, TYRP1 antigen on human melanoma cells …; remark: listed apart in the source
[6] = biological target: T1, TYRP1 antigen on human melanoma cells …; remark: listed apart in the source
[7] = biological target: T2, CD33 on leukemia cell lines (HL-60, MOLM-13, KG-1, K-562) (UniProt P20138 18-364, limits assumed)
[8] = biological target: T2, CD33 on leukemia cell lines (HL-60, …); remark: listed apart in the source
[9] = biological target: T2, CD33 on leukemia cell lines (HL-60, …); remark: listed apart in the source

T2 sequence (P20138 18-364 limits assumed): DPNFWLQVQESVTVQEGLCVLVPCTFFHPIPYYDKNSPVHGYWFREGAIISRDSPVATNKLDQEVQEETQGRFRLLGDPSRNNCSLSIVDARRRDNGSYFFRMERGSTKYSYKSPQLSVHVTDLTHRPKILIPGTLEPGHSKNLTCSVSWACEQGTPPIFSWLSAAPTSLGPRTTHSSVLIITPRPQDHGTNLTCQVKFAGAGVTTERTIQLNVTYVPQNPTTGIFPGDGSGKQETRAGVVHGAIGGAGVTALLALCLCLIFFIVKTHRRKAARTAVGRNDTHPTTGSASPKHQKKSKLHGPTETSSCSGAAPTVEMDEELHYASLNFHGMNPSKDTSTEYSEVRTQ

B1: FLCPeMg (cysteine engineered flanvotumab HC N299C conjugated with MA-Ac-β-Ala-VS(GlcA)-EDA-PNU), DAR 2.2 (antibody, human IgG1, kappa)
heavy: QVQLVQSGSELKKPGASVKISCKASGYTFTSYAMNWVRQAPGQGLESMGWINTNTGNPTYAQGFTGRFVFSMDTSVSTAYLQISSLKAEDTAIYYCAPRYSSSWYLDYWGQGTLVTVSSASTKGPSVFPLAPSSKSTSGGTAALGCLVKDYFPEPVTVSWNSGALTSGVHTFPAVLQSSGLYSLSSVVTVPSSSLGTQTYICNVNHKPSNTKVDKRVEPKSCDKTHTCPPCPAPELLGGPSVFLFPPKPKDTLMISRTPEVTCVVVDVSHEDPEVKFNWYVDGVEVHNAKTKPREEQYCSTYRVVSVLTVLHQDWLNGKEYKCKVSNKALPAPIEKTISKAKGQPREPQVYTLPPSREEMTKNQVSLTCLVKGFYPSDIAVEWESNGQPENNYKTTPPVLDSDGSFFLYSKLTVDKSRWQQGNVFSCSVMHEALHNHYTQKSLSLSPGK
light: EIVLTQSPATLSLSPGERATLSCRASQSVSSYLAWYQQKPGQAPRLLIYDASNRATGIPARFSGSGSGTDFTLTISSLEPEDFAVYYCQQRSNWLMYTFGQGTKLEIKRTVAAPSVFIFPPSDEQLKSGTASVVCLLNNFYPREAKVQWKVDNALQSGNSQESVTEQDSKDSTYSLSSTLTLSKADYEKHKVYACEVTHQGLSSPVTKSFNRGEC
modifications: PeMg linker-payload (maleimidoacetyl-β-Ala-Val-Ser(GlcA)-EDA-PNU) on the engineered cysteine (N299C); DAR 2.2
With B1 the “IC50, cell viability (PrestoBlue), IGR-1 cells” value (“IC50 … IGR-1 cells” below) [1] was 0.417 to 0.484 nM and the “IC50, cell viability (PrestoBlue), SK-MEL-30 cells” value (shortened to “IC50 … SK-MEL-30 cells”) [1] was 4.3 to 10 nM.

B2: FLCPeMa (cysteine engineered flanvotumab HC N299C conjugated with MA-Ac-EDA-PNU), DAR 1.7 (antibody, human IgG1, kappa)
heavy: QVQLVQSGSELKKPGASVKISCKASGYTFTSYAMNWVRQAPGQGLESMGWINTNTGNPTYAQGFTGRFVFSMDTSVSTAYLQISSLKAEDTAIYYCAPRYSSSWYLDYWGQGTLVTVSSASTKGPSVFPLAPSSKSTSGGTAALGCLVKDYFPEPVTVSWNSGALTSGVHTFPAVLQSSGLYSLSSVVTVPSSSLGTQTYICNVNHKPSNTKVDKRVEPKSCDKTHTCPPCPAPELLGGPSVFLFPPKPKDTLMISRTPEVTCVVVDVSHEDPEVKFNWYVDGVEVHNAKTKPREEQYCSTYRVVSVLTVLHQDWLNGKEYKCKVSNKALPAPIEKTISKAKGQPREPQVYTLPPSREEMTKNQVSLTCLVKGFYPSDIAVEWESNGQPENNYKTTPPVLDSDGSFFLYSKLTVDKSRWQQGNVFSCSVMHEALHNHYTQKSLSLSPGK
light: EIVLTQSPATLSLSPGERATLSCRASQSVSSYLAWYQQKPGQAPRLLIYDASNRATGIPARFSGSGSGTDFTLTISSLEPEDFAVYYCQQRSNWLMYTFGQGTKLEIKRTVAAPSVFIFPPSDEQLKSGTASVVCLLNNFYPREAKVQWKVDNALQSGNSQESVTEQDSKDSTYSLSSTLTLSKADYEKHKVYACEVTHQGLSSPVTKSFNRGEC
modifications: PeMa linker-payload (maleimidoacetyl-EDA-PNU) on the engineered cysteine (N299C); DAR 1.7
For B2, the “IC50 … IGR-1 cells” value [2] was 1.2 nM and the “IC50 … SK-MEL-30 cells” value [2] was 22 nM.

B3: FLCPeMala (cysteine engineered flanvotumab HC N299C conjugated with MA-Ac-β-Ala-EDA-PNU), DAR 2.0 (antibody, human IgG1, kappa)
heavy: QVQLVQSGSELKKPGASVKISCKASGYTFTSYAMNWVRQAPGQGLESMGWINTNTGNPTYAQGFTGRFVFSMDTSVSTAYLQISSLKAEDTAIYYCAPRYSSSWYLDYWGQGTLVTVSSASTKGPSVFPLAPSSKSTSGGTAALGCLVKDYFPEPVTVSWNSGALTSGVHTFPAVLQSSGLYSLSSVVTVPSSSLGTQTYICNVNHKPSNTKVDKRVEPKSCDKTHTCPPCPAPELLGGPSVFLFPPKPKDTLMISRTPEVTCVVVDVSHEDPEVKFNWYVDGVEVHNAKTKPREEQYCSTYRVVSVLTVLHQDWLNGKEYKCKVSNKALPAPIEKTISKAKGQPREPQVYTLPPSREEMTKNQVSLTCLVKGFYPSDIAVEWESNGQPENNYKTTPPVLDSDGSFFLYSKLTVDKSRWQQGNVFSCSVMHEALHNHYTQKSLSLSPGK
light: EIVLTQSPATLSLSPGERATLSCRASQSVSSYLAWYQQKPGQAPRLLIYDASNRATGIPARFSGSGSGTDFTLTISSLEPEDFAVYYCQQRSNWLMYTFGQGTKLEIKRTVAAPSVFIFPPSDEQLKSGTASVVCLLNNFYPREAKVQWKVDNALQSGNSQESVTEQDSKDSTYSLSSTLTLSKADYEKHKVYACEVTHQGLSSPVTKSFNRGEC
modifications: PeMala linker-payload (maleimidoacetyl-β-Ala-EDA-PNU) on the engineered cysteine (N299C); DAR 2.0
For B3, the “IC50 … IGR-1 cells” value [3] was 649 pM.

B4: CHPeD (glycoconjugated chimeric TA99-DBCO-Val-Ser(GlcA)-EDA-PNU ADC), DAR 2 (antibody, human IgG1, kappa, V domains shown)
VH: EVQLQQSGAELVRPGALVKLSCKTSGFNIKDYFLHWVRQRPDQGLEWIGWINPDNGNTVYDPKFQGTASLTADTSSNTVYLQLSGLTSEDTAVYFCTRRDYTYEKAALDYWGQGTTVTVST
VL: IQMSQSPASLSASVGETVTITCRASGNIYNYLAWYQQKQGKSPHLLVYDAKTLADGVPSRFSGSGSGTQYSLKISSLQTEDSGNYYCQHFWSLPFTFGSGTKLEIKR
modifications: DBCO-Val-Ser(GlcA)-EDA-PNU on GalNAz of the trimmed Fc N-glycan; DAR 2
For B4, the “IC50 … IGR-1 cells” value [4] was 1.4 nM, the “IC50, cell viability (PrestoBlue), SK-MEL-28 cells” value [4] was 55 nM and the “IC50 … SK-MEL-30 cells” value [4] was 5.7 nM.

B5: FLCPeMcv (cysteine engineered flanvotumab HC N299C conjugated with MA-caproyl-Val-Cit-PAB-EDA-PNU), DAR 1.4 (antibody, human IgG1, kappa)
heavy: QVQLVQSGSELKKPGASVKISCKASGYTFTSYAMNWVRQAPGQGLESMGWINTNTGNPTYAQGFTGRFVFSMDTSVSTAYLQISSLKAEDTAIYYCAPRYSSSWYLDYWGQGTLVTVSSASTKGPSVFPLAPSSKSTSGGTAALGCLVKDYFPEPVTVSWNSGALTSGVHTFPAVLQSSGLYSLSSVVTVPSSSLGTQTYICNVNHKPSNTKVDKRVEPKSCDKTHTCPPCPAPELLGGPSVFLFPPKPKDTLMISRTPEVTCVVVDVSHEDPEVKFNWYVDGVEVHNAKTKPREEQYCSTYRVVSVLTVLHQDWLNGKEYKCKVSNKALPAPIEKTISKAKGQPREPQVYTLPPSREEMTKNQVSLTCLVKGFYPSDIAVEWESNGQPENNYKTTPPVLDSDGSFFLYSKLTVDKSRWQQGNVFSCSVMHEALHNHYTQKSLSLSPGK
light: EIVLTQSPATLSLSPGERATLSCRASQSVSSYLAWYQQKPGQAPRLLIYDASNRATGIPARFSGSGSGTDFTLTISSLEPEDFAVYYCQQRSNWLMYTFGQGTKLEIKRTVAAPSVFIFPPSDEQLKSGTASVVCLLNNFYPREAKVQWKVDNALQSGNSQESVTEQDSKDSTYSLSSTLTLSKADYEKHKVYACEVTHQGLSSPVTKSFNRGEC
modifications: PeMcv linker-payload (MA-caproyl-Val-Cit-PAB-EDA-PNU) on the engineered cysteine (N299C); DAR 1.4
For B5, the “IC50 … IGR-1 cells” value [5] was 0.414 to 0.716 nM and the “IC50 … SK-MEL-30 cells” value [5] was 2.8 to 4 nM.

B6: CHAuM (chimeric TA99-maleimidoacetyl-β-Ala-Val-Ser(Glc)-PAB-MMAU), DAR 6 (antibody, human IgG1, kappa, V domains shown)
VH: EVQLQQSGAELVRPGALVKLSCKTSGFNIKDYFLHWVRQRPDQGLEWIGWINPDNGNTVYDPKFQGTASLTADTSSNTVYLQLSGLTSEDTAVYFCTRRDYTYEKAALDYWGQGTTVTVST
VL: IQMSQSPASLSASVGETVTITCRASGNIYNYLAWYQQKQGKSPHLLVYDAKTLADGVPSRFSGSGSGTQYSLKISSLQTEDSGNYYCQHFWSLPFTFGSGTKLEIKR
modifications: AuM linker-payload on reduced interchain cysteine; AuM linker-payload (maleimidoacetyl-β-Ala-Val-Ser(Glc)-PAB-MMAU) on reduced interchain cysteines; DAR 6 in all
In the case of B6, the “IC50 … IGR-1 cells” value [6] is reported as 2.2 nM, the “IC50, cell viability (PrestoBlue), SK-MEL-28 cells” value [6] is reported as over 300 nM and the “IC50 … SK-MEL-30 cells” value [6] is reported as 48 nM.

B7: GMAuM (gemtuzumab-maleimidoacetyl-β-Ala-Val-Ser(Glc)-PAB-MMAU), DAR 8 (antibody, human IgG4 S228P, kappa, V domains shown)
VH: EVQLVQSGAEVKKPGSSVKVSCKASGYTITDSNIHWVRQAPGQSLEWIGYIYPYNGGTDYNQKFKNRATLTVDNPTNTAYMELSSLRSEDTAFYYCVNGNPWLAYWGQGTLVTVSS
VL: DIQLTQSPSTLSASVGDRVTITCRASESLDNYGIRFLTWFQQKPGKAPKLLMYAASNQGSGVPSRFSGSGSGTEFTLTISSLQPDDFATYYCQQTKEVPWSFGQGTKVEVKR
modifications: AuM linker-payload on reduced interchain cysteine; AuM linker-payload (maleimidoacetyl-β-Ala-Val-Ser(Glc)-PAB-MMAU) on reduced interchain cysteines; DAR 8.0 in all
In the case of B7, the “IC50, cytotoxicity, HL-60 cells, 5 days” value [7] is reported as 583 pM, the “IC50, cytotoxicity, K-562 (low CD33) cells, 3 days” value [7] is reported as 241 nM and the “IC50, cytotoxicity, MOLM-13 cells, 3 days” value [7] is reported as 206 pM.

B8: LNCAuM (cysteine engineered lintuzumab HC N296C-maleimidoacetyl-β-Ala-Val-Ser(Glc)-PAB-MMAU), DAR 1.7 (antibody, human IgG1, kappa, V domains shown)
VH: QVQLVQSGAEVKKPGSSVKVSCKASGYTFTDYNMHWVRQAPGQGLEWIGYIYPYNGGTGYNQKFKSKATITADESTNTAYMELSSLRSEDTAVYYCARGRPAMDYWGQGTLVTVSS
VL: DIQMTQSPSSLSASVGDRVTITCRASESVDNYGISFMNWFQQKPGKAPKLLIYAASNQGSGVPSRFSGSGSGTDFTLTISSLQPDDFATYYCQQSKEVPWTFGQGTKVEIKR
modifications: AuM linker-payload (maleimidoacetyl-β-Ala-Val-Ser(Glc)-PAB-MMAU) on the engineered cysteine (N296C); DAR 1.7
B8 was tested, and the “IC50, cytotoxicity, HL-60 cells, 5 days” value [8] was 16 nM.

B9: LNCAuMb (cysteine engineered lintuzumab HC N296C conjugated with branched N-MAL-N-bis(Peg2)-Val-Ser(Glc)-PAB-MMAU), DAR 3.3 (antibody, human IgG1, kappa, V domains shown)
VH: QVQLVQSGAEVKKPGSSVKVSCKASGYTFTDYNMHWVRQAPGQGLEWIGYIYPYNGGTGYNQKFKSKATITADESTNTAYMELSSLRSEDTAVYYCARGRPAMDYWGQGTLVTVSS
VL: DIQMTQSPSSLSASVGDRVTITCRASESVDNYGISFMNWFQQKPGKAPKLLIYAASNQGSGVPSRFSGSGSGTDFTLTISSLQPDDFATYYCQQSKEVPWTFGQGTKVEIKR
modifications: branched AuMb linker-payload (N-MAL-N-bis(Peg2)-Val-Ser(Glc)-PAB-MMAU) on the engineered cysteine (N296C); DAR 3.3
With B9 the “IC50, cytotoxicity, HL-60 cells, 5 days” value [9] was 2.2 nM.
